Measured values from paper PMC3542407 (Journal of biotechnology, 2012).

Tests used:
CC=O = experiment: purified protein; settings: 200 µM NADH, 100 mM Tris pH 7, 1 mM DTT, 25°C
CC(C)C=O = experiment: purified protein; settings: 200 µM NADH, 100 mM Tris pH 7, 1 mM DTT, 25°C
O=Cc1ccc(CO)o1 = experiment: purified protein; settings: 200 µM NADH, 100 mM Tris pH 7, 1 mM DTT, 25°C
LlAdhA = LlAdhA (Lactococcus lactis, UniProt Q9CEN0, Y50F/N110S/I212T/L264V); experiment: NADH consumption at […] nm; settings: read-out: LlAdhA^29C8 / KM; 200 µM NADH; 100 mM Tris pH 7, 1 mM DTT; 25°C
O=Cc1ccco1 = experiment: purified protein; type: biochemical, Lactococcus lactis; settings: 200 µM NADH, 100 mM Tris pH 7, 1 mM DTT, 25°C
O=CC=Cc1ccccc1 = experiment: purified protein; type: biochemical, Lactococcus lactis; settings: 200 µM NADH, 100 mM Tris pH 7, 1 mM DTT, 25°C

Molecule | Km (CC=O) [mM] | kcat (CC=O) [s⁻¹] | kcat/Km (CC=O) [M⁻¹ s⁻¹] | Km (CC(C)C=O) [mM] | kcat (CC(C)C=O) [s⁻¹] | kcat/Km (CC(C)C=O) [M⁻¹ s⁻¹] | Km (O=Cc1ccc(CO)o1) [mM] | kcat (O=Cc1ccc(CO)o1) [s⁻¹] | kcat/Km (O=Cc1ccc(CO)o1) [M⁻¹ s⁻¹] | Km (LlAdhA) [µM] | Km (O=Cc1ccco1) [mM] | kcat (O=Cc1ccco1) [s⁻¹] | kcat/Km (O=Cc1ccco1) [M⁻¹ s⁻¹] | Km (O=CC=Cc1ccccc1) [mM] | kcat (O=CC=Cc1ccccc1) [s⁻¹] | kcat/Km (O=CC=Cc1ccccc1) [M⁻¹ s⁻¹]
LlAdhA (Lactococcus lactis subsp. lactis Il1403; I212T/L264V/N110S/Y50F) | 0.92 | 58 | 63000 | 0.68 ± 0.07 | 300 ± 4 | 440000 ± 50000 | 0.57 | 29 | 51000 |  |  |  |  |  |  | 
LlAdhA (Lactococcus lactis subsp. lactis Il1403; L264V/Y50F) |  |  |  | 1.6 ± 0.2 | 50 ± 1 | 32000 ± 4000 |  |  |  |  |  |  |  |  |  | 
LlAdhA (Lactococcus lactis subsp. lactis Il1403; I212T/L264V/Y50F) | 0.5 | 31 | 57000 | 1.70 ± 0.01 | 140 ± 1 | 82000 ± 1000 | 0.67 | 23 | 34000 |  |  |  |  |  |  | 
O=Cc1ccco1 [2-furaldehyde] |  |  |  |  |  |  |  |  |  | 200 |  |  |  |  |  | 
LlAdhA (Lactococcus lactis subsp. lactis Il1403) | 0.4 | 35 | 94000 | 12 ± 1 | 30 ± 1 | 2800 ± 200 | 22 | 19 | 880 |  | 0.39 | 22 | 57000 | 0.7 | 27 | 39000
